Here are results for two molecules from article PMC11189300 (2024).

For test [1], the target named is T1, ZWINT^M2 (human, UniProt O95229 1-277). Nature of the test: BLI; Kd1. On the technique in general: Biolayer interferometry detects binding as a change in optical thickness at a sensor tip.
Test [2] concerns the target T2, ZWINT^M1 (human, UniProt O95229 1-277). As to the kind of experiment: BLI; Kd1.
Test [3] concerns the target T1, ZWINT^M2. As to the kind of experiment: BLI; Kd2 (second site).
Test [4] deals with T2, ZWINT^M1. As to the kind of experiment: BLI; Kd2 (second site).
For another test, the target named is Mis12C^M5 (NSL1 I216A) (human, UniProt Q9H081 1-205; Q6P1K2 1-205; Q96IY1 1-281; Q9H410 1-356, I216A). Nature of the test: ITC.
The target in another test is Mis12C^M3 (human, UniProt Q9H081 1-205; Q6P1K2 1-205; Q96IY1 1-281; Q9H410 1-356). Nature of the test: ITC.
A further test addresses Mis12C^M4 (human, UniProt Q9H081 1-205; Q6P1K2 1-205; Q96IY1 1-281; Q9H410 1-356). Nature of the test: ITC. (In general: In ITC the heat of successive injections is recorded.)

Sequence of Mis12C^M4 (Q9H081 whole entry, chain 1 of 4): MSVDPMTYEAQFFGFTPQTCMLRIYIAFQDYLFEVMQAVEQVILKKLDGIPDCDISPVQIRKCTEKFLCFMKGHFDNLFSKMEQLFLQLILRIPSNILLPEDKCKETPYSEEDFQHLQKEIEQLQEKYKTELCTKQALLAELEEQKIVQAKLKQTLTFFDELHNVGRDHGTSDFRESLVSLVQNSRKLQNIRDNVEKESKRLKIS
Sequence of Mis12C^M4 (Q6P1K2 whole entry, chain 2 of 4): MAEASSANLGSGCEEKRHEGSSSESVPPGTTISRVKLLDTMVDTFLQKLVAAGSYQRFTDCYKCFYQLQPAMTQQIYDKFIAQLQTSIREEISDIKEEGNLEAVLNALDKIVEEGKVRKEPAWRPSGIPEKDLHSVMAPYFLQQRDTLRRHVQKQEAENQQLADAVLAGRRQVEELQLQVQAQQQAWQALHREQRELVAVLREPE
Sequence of Mis12C^M4 (Q96IY1 whole entry, chain 3 of 4): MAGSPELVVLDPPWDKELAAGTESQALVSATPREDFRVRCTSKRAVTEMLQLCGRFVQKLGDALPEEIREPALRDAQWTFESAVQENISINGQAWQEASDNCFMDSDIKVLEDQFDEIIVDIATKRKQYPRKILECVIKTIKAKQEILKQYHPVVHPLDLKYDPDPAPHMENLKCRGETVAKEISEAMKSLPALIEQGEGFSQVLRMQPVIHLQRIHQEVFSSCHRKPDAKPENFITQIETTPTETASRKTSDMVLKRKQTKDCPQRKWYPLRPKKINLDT
Sequence of Mis12C^M4 (Q9H410 whole entry, chain 4 of 4): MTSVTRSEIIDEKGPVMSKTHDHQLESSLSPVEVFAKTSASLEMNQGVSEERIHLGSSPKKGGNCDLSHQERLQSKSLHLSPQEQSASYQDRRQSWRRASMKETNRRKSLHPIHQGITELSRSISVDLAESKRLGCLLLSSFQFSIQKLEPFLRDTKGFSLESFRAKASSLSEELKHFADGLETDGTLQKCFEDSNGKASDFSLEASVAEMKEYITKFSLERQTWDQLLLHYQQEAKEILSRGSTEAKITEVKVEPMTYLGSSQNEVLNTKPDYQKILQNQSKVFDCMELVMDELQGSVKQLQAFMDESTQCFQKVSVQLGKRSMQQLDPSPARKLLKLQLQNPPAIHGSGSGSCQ
Sequence of Mis12C^M5 (NSL1 I216A) (Q9H081 whole entry, chain 1 of 4): as the sequence (Q9H081 whole entry, chain 1 of 4) above
Sequence of Mis12C^M5 (NSL1 I216A) (Q6P1K2 whole entry, chain 2 of 4): as the sequence (Q6P1K2 whole entry, chain 2 of 4) above
Sequence of Mis12C^M5 (NSL1 I216A) (Q96IY1 whole entry I216A, chain 3 of 4): as the sequence (Q96IY1 whole entry, chain 3 of 4) above, with I216A counted along it
Sequence of Mis12C^M5 (NSL1 I216A) (Q9H410 whole entry, chain 4 of 4): as the sequence (Q9H410 whole entry, chain 4 of 4) above
Sequence of Mis12C^M3 (Q9H081 whole entry, chain 1 of 4): as the sequence (Q9H081 whole entry, chain 1 of 4) above
Sequence of Mis12C^M3 (Q6P1K2 whole entry, chain 2 of 4): as the sequence (Q6P1K2 whole entry, chain 2 of 4) above
Sequence of Mis12C^M3 (Q96IY1 whole entry, chain 3 of 4): as the sequence (Q96IY1 whole entry, chain 3 of 4) above
Sequence of Mis12C^M3 (Q9H410 whole entry, chain 4 of 4): as the sequence (Q9H410 whole entry, chain 4 of 4) above

B1: KNL1 (construct of the BLI titrations with ZWINT) (domain or fragment)
chain: GKLVQSAQNEREKLQIKIDEMDKILKKIDNCLTEMETETKNLEDEEKNNPVEEWDSEMRAAEKELEQLKTEEEELQRNLLELEVQKEQTLAQIDFMQKQRNRTEELLDQLSLSEWDVVEWSDDQAVFTFVYDTIQLTITFEESVVGFPFLDKRYRKIVDVNFQSLLDEDQAPPSSLLVHKLIFQYVEEKESWKKTCTTQHQLPKMLEEFSLVVHHCRLLGEEIEYLKRWGPNYNLMNIDINNNELRLLFSSSAAFAKFEITLFLSAYYPSVPLPSTIQNHVGNTSQDDIATILSKVPLENNYLKNVVKQIYQDLFQDCHFYH
As to B1, the Kd (as a rule, the concentration at which binding is half-saturated) was determined as 1170 nM with ZWINT^M2 [1], 235 nM in the test with ZWINT^M1 [2], 250 nM with ZWINT^M2 [3] and 25.1 nM with ZWINT^M1 [4].

B2: full-length SPC24/SPC25 (complex)
chain 1: MAAFRDIEEVSQGLLSLLGANRAEAQQRRLLGRHEQVVERLLETQDGAEKQLREILTMEKEVAQSLLNAKEQVHQGGVELQQLEAGLQEAGEEDTRLKASLLQLTRELEELKEIEADLERQEKEVDEDTTVTIPSAVYVAQLYHQVSKIEWDYECEPGMVKGIHHGPSVAQPIHLDSTQLSRKFISDYLWSLVDTEW
chain 2: MVEDELALFDKSINEFWNKFKSTDTSCQMAGLRDTYKDSIKAFAEKLSVKLKEEERMVEMFLEYQNQISRQNKLIQEKKDNLLKLIAEVKGKKQELEVLTANIQDLKEEYSRKKETISTANKANAERLKRLQKSADLYKDRLGLEIRKIYGEKLQFIFTNIDPKNPESPFMFSLHLNEARDYEVSDSAPHLEGLAEFQENVRKTNNFSAFLANVRKAFTATVYN
With B2, the figures for the Kd with Mis12C^M5 (NSL1 I216A), in the test with Mis12C^M3 and with Mis12C^M4 were 774 nM, 1170 nM and 451 nM, respectively.
